Test results reported in article doi:10.1101/2020.02.26.966614.

Target: MICAL1-oxidized actin filaments (alpha-skeletal actin, rabbit) (rabbit) (UniProt P68135)
Assay: single-filament microfluidics with fluorescence microscopy

growth rate of single cofilin-1 domains, normalized by the cofilin concentration: 10 sub/s/µM
Substance: eGFP-S3D-cofilin-1 (from UniProt P18760 1-166) (natural protein)
